Several values for one entry are separate records, joined by “and”; a condition that tells them apart may be missing. Identical values can stand only once.
T1: AORAa (Aor(AB)nC complex; FAD-containing subunit AorC) (Aromatoleum aromaticum, UniProt Q5P142)
T1 construct: same complex as P1, site in AorC; N-terminal twin-Strep-tag on AorA; expressed in Aromatoleum evansii; modelled Aor(AB)2C; with Aldehyde oxidoreductase, polyferredoxin-like iron-sulfur subunit AorA; Aldehyde oxidoreductase, tungsten-containing catalytic subunit AorB (aldehyde:ferredoxin oxidoreductase)
T1 sequence (Q5P142 1-424): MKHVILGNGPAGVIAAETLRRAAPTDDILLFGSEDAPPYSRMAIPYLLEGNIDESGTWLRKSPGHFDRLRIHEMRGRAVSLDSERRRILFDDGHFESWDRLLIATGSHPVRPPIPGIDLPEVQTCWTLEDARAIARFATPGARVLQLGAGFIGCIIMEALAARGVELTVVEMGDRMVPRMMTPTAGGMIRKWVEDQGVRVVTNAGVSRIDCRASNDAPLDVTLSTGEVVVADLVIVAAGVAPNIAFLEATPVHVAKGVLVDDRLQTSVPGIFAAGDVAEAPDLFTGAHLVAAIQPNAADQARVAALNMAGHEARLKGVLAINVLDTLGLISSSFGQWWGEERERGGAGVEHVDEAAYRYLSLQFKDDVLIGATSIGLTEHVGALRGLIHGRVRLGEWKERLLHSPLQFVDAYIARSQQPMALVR
T1 sequence (Q5P144 1-158 partner): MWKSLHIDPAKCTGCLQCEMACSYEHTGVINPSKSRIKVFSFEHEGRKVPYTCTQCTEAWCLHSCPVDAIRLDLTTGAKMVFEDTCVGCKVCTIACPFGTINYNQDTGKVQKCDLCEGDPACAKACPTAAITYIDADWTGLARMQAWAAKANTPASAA
T1 sequence (Q5P143 1-616 partner): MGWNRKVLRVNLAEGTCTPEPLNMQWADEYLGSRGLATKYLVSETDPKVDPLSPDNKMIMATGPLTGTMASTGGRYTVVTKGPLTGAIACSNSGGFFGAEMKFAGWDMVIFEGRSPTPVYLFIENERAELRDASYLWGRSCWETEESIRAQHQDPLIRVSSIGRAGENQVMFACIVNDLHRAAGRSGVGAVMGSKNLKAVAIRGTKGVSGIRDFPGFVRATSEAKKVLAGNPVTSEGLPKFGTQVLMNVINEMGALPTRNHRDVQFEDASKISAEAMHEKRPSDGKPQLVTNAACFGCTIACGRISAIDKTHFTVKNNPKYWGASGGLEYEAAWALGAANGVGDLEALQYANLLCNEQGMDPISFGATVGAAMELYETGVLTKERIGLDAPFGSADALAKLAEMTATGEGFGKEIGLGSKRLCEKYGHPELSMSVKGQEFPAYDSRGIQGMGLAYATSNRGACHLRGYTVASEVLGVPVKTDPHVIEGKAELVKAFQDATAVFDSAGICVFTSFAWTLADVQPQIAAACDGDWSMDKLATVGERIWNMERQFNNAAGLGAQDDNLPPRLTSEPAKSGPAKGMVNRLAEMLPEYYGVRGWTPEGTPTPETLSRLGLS

T2: AorA of the variant Δhelix-AOR, lacking the AorA residues from 138 to the C terminus (Aromatoleum aromaticum (strain DSM …, UniProt Q5P144))
T2 chain: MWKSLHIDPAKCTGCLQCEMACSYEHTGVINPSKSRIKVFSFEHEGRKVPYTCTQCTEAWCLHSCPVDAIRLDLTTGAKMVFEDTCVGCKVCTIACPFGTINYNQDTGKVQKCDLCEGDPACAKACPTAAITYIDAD

T3: AorB, catalytic tungsten-cofactor-containing subunit of the aldehyde oxidoreductase from Aromatoleum … (Aromatoleum aromaticum, UniProt Q5P143 1-616)
T3 construct: AorB of Aromatoleum aromaticum; benzoate seen in the active site; also called catalytic subunit; source: Aromatoleum evansii, heterologous expression of the AOR plasmid; Superdex 200 gel filtration for the wild-type complex, not for Δhelix-AOR
T3 sequence: T1 sequence (Q5P143 1-616 partner)

B1: AorC, FAD-containing NAD-binding subunit of the aldehyde oxidoreductase from Aromatoleum aromaticum (AORAa) (natural protein)
chain: T1 sequence (Q5P142 1-424)
notes: AorC of Aromatoleum aromaticum, Rossmann fold with an extended C-terminal domain of three α helices; A single copy per Aor(AB)nC complex; also called FAD-containing subunit; source: Aromatoleum evansii, heterologous expression of the AOR plasmid; Superdex 200 gel filtration for the wild-type complex, not for Δhelix-AOR
B2: AorB, catalytic tungsten-cofactor-containing subunit of the aldehyde oxidoreductase from Aromatoleum aromaticum (AORAa) (protein)
chain: T1 sequence (Q5P143 1-616 partner)
B3: AorA, polyferredoxin-like small subunit of the aldehyde oxidoreductase from Aromatoleum aromaticum (AORAa) (natural protein)
chain: T1 sequence (Q5P144 1-158 partner)
notes: Two to four copies per Aor(AB)nC complex; Carries four Fe4S4 clusters; also called small subunit AorA; electron transfer subunit; source: Aromatoleum evansii, heterologous expression of the AOR plasmid

Columns and labels:
[1] = biological target: T1, AORAa (Aor(AB)nC complex; FAD-containing subunit AorC); experiment: cryo-EM structure, […] A; type: binding; details: bound in AorC; Arg41 and Glu294 (Gln294 in figure legend)
[2] = biological target: T4, AORAa (Aor(AB)nC complex; FAD-containing subunit AorC) (Aromatoleum aromaticum, UniProt Q5P142); experiment: spectrophotometric specific activity; type: biochemical; details: hydrogen as electron donor; deletion-helix AOR
T4 construct: same complex as P1, site in AorC; N-terminal twin-Strep-tag on AorA; expressed in Aromatoleum evansii; modelled Aor(AB)2C; with Aldehyde oxidoreductase, polyferredoxin-like iron-sulfur subunit AorA; Aldehyde oxidoreductase, tungsten-containing catalytic subunit AorB (aldehyde:ferredoxin oxidoreductase)
T4 sequence (Q5P144 entry or part of it DEL138-156, one chain of several, further chain): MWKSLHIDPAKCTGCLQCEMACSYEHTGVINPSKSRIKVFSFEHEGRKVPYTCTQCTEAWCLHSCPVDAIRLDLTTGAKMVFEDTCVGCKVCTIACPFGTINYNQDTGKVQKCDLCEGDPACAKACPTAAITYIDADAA

[3] = biological target: T2, AorA of the variant Δhelix-AOR, lacking …; experiment: mass photometry of co-purified complex; seen only within the AorABC complex, with AorB present
[4] = biological target: T3, AorB, catalytic …; experiment: cryo-EM structure; purified AORAa complex, 0.7 mg/ml, 50 mM Hepes pH 7.5, glycerol below 2%; native and BS3 cross-linked samples prepared; 3.22 Å map of an Aor(AB)3C complex, model of Aor(AB)2C; details: both partners purified
[5] = biological target: T2, AorA of the variant Δhelix-AOR, lacking …; experiment: mass photometry of co-purified complex
[6] = biological target: the molecule itself; experiment: mass photometry; OneMP mass photometer, 10 mM tris pH 8.0, 100 mM KCl, 0.1 mM EDTA, room temperature, sample diluted 10-fold just before measurement; 50 nM in Fig. 2D, E
[7] = biological target: B1; experiment: cryo-EM structure; purified AORAa complex, 0.7 mg/ml, 50 mM Hepes pH 7.5, glycerol below 2%; native and BS3 cross-linked samples prepared; 3.22 Å map of an Aor(AB)3C complex, model of Aor(AB)2C; details: both partners purified

Molecule: Cc1cc2nc3c(=O)[nH]c(=O)nc-3n(C[C@H](O)[C@H](O)[C@H](O)COP(=O)(O)OP(=O)(O)OC[C@H]3O[C@@H](n4cnc5c(N)ncnc54)[C@H](O)[C@@H]3O)c2cc1C [FAD]
cryo-EM structure, 3.22 A [1]: The FAD cofactor was well resolved in the electron density

Molecule: NC(=O)c1ccc[n+]([C@@H]2O[C@H](COP(=O)(O)OP(=O)(O)OC[C@H]3O[C@@H](n4cnc5c(N)ncnc54)[C@H](O)[C@@H]3O)[C@@H](O)[C@H]2O)c1 [NAD^+]
specific activity [2]: NAD^+ reduction with hydrogen as an electron donor

Molecule: B1
binding result [3]: binds
binding result [4]: binds

Molecule: B2
binding result [5]: binds

Molecule: B3
stoichiometry N [6]: 2 and 3 and 4
binding result [4]: binds
binding result [7]: binds

From publication PMC10413684, “A bacterial tungsten-containing aldehyde oxidoreductase forms an enzymatic decorated protein nanowire” (Science Advances, 2023)
